T1: NHERF3_4, Q5T2W1
T1 sequence (Q5T2W1 373-468, limits assumed, looked up): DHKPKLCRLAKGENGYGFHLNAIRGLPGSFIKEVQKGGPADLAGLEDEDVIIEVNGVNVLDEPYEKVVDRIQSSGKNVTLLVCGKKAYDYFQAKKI

T2: SYNJ2BP, P57105
T2 sequence (P57105 8-110, limits assumed, looked up): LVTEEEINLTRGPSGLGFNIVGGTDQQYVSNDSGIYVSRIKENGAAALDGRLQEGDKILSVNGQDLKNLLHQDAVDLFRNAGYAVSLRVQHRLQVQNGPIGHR

T3: RHPN1, Q8TCX5
T3 sequence (Q8TCX5 508-602, limits assumed, looked up): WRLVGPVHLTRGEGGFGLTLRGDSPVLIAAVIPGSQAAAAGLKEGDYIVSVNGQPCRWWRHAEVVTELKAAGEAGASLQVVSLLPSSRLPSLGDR

T4: DLG3_2, Q92796
T4 sequence (Q92796 221-321, limits assumed, looked up): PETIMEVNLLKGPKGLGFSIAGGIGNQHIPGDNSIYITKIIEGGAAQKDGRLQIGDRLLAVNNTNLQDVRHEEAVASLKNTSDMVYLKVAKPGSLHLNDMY

T5: LIN7C, Q9NUP9
T5 sequence (Q9NUP9 88-185, limits assumed, looked up): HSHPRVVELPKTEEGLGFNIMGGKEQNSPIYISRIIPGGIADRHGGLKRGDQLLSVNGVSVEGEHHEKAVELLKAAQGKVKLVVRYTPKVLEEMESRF

T6: NHERF3_1, Q5T2W1
T6 sequence (Q5T2W1 4-100, limits assumed, looked up): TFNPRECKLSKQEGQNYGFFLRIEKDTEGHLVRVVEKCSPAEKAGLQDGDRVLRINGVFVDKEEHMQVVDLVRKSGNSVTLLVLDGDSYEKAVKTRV

T7: SHANK1, Q9Y566
T7 sequence (Q9Y566 658-767, limits assumed, looked up): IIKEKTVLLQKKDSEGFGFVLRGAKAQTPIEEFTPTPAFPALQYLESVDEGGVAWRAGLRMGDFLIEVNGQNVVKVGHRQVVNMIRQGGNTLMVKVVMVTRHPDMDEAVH

T8: SNTG1, Q9NSN8
T8 sequence (Q9NSN8 52-150, limits assumed, looked up): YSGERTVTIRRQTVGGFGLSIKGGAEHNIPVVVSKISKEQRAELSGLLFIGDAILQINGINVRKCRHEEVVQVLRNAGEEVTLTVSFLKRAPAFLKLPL

T9: LNX2_2, Q8N448
T9 sequence (Q8N448 334-432, limits assumed, looked up): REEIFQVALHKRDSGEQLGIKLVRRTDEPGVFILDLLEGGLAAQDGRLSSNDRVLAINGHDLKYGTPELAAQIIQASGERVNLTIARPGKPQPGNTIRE

T10: DFNB31_3, Q9P202
T10 sequence (Q9P202 811-907, limits assumed, looked up): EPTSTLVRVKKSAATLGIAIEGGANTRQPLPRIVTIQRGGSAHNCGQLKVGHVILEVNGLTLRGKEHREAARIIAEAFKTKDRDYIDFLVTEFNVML

T11: MPP2, Q14168
T11 sequence (Q14168 180-250, limits assumed, looked up): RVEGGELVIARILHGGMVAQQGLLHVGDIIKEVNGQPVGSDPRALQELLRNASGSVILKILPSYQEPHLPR


What was measured:
Experiment in all cases: holdup assay
Parameters in all cases: key: below the threshold = too weak to quantify, mostly under pKd 3.1 to 4
Settings in all cases: plain residues with an end cap or a label only (N-terminal biotin on a linker: ttds)
[1] = biological target: T1, NHERF3_4, Q5T2W1
[2] = biological target: T2, SYNJ2BP, P57105
[3] = biological target: PTPN3, P26045
[4] = biological target: T3, RHPN1, Q8TCX5
[5] = biological target: FRMPD3, Q5JV73
[6] = biological target: NHERF4_2, Q86UT5
[7] = biological target: DLG4_2, P78352
[8] = biological target: T4, DLG3_2, Q92796
[9] = biological target: LNX1_1, Q8TBB1
[10] = biological target: Inadl_8, Q8NI35
[11] = biological target: T5, LIN7C, Q9NUP9
[12] = biological target: T6, NHERF3_1, Q5T2W1
[13] = biological target: T7, SHANK1, Q9Y566
[14] = biological target: T8, SNTG1, Q9NSN8
[15] = biological target: PDZRN4_1, Q6ZMN7
[16] = biological target: TJP1_2, Q07157
[17] = biological target: GORASP1, Q9BQQ3
[18] = biological target: T9, LNX2_2, Q8N448
[19] = biological target: DLG4_1, P78352
[20] = biological target: T10, DFNB31_3, Q9P202
[21] = biological target: MAGI1_2, Q96QZ7
[22] = biological target: NHERF2_2, Q15599
[23] = biological target: MAST1, Q9Y2H9
[24] = biological target: MAGI2_3, Q86UL8
[25] = biological target: SCRIB_1, Q14160
[26] = biological target: GORASP2, Q9H8Y8
[27] = biological target: T11, MPP2, Q14168

NHERF4_2, Q86UT5, sequence (Q86UT5 220-308): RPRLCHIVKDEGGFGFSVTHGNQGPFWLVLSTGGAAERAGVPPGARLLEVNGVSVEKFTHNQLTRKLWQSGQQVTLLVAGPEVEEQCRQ
MAGI1_2, Q96QZ7, sequence (Q96QZ7 456-580): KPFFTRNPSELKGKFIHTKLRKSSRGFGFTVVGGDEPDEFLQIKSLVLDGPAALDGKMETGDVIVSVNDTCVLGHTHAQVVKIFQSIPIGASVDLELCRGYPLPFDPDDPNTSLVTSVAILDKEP
FRMPD3, Q5JV73, sequence (Q5JV73 12-100): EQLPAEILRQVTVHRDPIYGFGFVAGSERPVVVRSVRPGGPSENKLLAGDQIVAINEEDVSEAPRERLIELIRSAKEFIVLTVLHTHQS
GORASP1, Q9BQQ3, sequence (Q9BQQ3 1-208): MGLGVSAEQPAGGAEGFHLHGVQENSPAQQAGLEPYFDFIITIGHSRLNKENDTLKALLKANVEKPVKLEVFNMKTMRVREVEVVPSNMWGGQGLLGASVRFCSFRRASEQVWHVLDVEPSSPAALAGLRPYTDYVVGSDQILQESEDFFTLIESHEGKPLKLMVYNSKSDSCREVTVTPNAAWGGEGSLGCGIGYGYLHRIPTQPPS
MAST1, Q9Y2H9, sequence (Q9Y2H9 962-1065): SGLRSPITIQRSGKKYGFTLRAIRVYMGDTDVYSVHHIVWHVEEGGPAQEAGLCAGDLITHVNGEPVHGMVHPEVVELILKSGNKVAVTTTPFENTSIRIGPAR
Inadl_8, Q8NI35, sequence (Q8NI35 1425-1530): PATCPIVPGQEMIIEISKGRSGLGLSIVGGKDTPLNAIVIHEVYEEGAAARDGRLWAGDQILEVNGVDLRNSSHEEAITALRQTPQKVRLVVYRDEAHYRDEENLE
PDZRN4_1, Q6ZMN7, sequence (Q6ZMN7 213-318): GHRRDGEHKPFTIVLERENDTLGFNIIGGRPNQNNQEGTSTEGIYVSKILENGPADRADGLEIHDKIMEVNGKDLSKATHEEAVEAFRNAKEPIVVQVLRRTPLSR
DLG4_1, P78352, sequence (P78352 62-152): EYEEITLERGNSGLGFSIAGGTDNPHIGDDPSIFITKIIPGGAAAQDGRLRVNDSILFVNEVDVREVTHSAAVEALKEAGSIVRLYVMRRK
TJP1_2, Q07157, sequence (Q07157 181-274): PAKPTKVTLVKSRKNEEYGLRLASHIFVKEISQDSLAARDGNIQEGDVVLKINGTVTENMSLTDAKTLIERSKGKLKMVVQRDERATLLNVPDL
DLG4_2, P78352, sequence (P78352 155-259): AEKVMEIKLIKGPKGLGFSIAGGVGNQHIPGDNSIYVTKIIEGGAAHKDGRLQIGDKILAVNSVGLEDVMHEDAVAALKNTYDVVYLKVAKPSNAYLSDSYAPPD
NHERF2_2, Q15599, sequence (Q15599 142-238): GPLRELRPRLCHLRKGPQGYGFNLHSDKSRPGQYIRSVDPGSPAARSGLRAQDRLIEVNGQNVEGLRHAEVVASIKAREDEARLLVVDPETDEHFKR
SCRIB_1, Q14160, sequence (Q14160 718-814): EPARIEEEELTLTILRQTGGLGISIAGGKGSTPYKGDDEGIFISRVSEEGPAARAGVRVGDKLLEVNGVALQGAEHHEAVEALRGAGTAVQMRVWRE
LNX1_1, Q8TBB1, sequence (Q8TBB1 261-371): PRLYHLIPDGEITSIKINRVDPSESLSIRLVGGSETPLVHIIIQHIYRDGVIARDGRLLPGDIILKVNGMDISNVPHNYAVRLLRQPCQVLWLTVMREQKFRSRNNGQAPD
PTPN3, P26045, sequence (P26045 505-587): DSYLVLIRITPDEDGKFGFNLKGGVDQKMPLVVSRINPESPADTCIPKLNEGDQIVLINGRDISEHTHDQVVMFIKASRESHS
MAGI2_3, Q86UL8, sequence (Q86UL8 600-682): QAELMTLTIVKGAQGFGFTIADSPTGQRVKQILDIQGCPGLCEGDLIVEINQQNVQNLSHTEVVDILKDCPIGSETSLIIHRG

| pKd [1] | pKd [2] | pKd [3] | pKd [4] | pKd [5] | pKd [6] | pKd [7] | pKd [8] | pKd [9] | pKd [10] | pKd [11] | pKd [12] | pKd [13] | pKd [14] | pKd [15] | pKd [16] | pKd [17] | pKd [18] | pKd [19] | pKd [20] | Binder | also measured |
| --- | --- | --- | --- | --- | --- | --- | --- | --- | --- | --- | --- | --- | --- | --- | --- | --- | --- | --- | --- | --- | --- |
| 3.65 | 3.82 | 3.93 | 4.26 | below the threshold | below the threshold | below the threshold | below the threshold | 3.76 | below the threshold | below the threshold | 4.03 | 4.17 | 3.88 | 4.13 | 3.51 | below the threshold | 3.6 | 3.68 | 4.14 | RRVRKLPSTTL [RPS6KA1, Q15418] | pKd [21]: 4.3; pKd [22]: 3.97; pKd [23]: 4.68; pKd [24]: 3.63; pKd [25]: 3.48; pKd [26]: 3.59; pKd [27]: below the threshold |
| 3.53 | 3.65 | 3.94 | 4.36 | below the threshold | below the threshold | 3.67 | 4.04 | below the threshold | 4.46 | below the threshold | 4.03 | 4.35 | 4.01 | 3.62 | below the threshold | 3.88 | 4.25 | 3.82 | 3.71 | DEDQHTQITKV [PTEN, P60484] | pKd [21]: below the threshold; pKd [22]: 4.29; pKd [23]: 4.79; pKd [24]: 4.64; pKd [25]: 4.83; pKd [26]: 3.82; pKd [27]: below the threshold |
| below the threshold | below the threshold | below the threshold | below the threshold | below the threshold | below the threshold | 4.12 | 3.93 | 3.6 | 3.78 | below the threshold | below the threshold | 4.17 | 3.66 | below the threshold | below the threshold | below the threshold | below the threshold | below the threshold | below the threshold | QPGTPTRTAV [MAP2K2, P36507] | pKd [21]: below the threshold; pKd [22]: below the threshold; pKd [23]: below the threshold; pKd [24]: 3.6; pKd [25]: below the threshold; pKd [26]: below the threshold; pKd [27]: below the threshold |
| 3.54 | 3.98 | 3.8 | 4.09 | below the threshold | below the threshold | 4.45 | 4.53 | 3.52 | below the threshold | 3.64 | 3.74 | below the threshold | 3.86 | below the threshold | below the threshold | below the threshold | 4.13 | 3.98 | below the threshold | CNTVTVETVV [MAS1, P04201] | pKd [21]: below the threshold; pKd [22]: below the threshold; pKd [23]: 3.58; pKd [24]: 3.63; pKd [25]: below the threshold; pKd [26]: below the threshold; pKd [27]: below the threshold |

From publication PMC9482650, “Quantitative fragmentomics allow affinity mapping of interactomes” (Nature Communications, 2022)
